Measured values as given in article PMC6179379, “The IgM pentamer is an asymmetric pentagon with an open groove that binds the AIM protein” (Science Advances, 2018).
Where “and” joins values, the source holds several entries; their conditions need not be identical. Identical values can stand only once. Values belong to the molecule of their own block, whether it stands above or below them.

Tests used:
[1] = molecular target: FLAG-tagged recombinant human IgM-Fc (human); assay: negative-stain EM; purified IgM-Fc or IgM made with the J chain, about 15 μg/ml, 1% uranyl acetate; reference-free 2D class averages (RELION)
[2] = molecular target: FLAG-tagged mouse IgM-Fc Cys414Ser variant (mouse); assay: Western blotting after non-reducing SDS-PAGE; supernatant of HEK293T cells co-expressing FLAG-IgM-Fc and HA-J chain; anti-FLAG and anti-HA blots, reducing and nonreducing conditions
[3] = molecular target: FLAG-tagged mouse IgM-Fc Cys414Ser variant (mouse); assay: negative-stain EM; purified IgM-Fc or IgM made with the J chain, about 15 μg/ml, 1% uranyl acetate; reference-free 2D class averages (RELION)
[4] = molecular target: T1, Mouse IgM-Fc pentamer with HA-tagged J chain (mouse, UniProt P01872 1-454; P01592 22-159); assay: co-IP; complex from co-culture supernatant purified on ANTI-FLAG M2 Affinity Gel, then on an anti-AIM antibody column; eluate blotted with anti-HA in a reducing condition, bands quantified with ImageJ; five experiments; conditions: partners not purified
T1 construct: Mouse immunoglobulin M heavy chain, Fc region: Cμ2-Cμ3-Cμ4 and the short tail; Mouse immunoglobulin J (joining) chain; as m2; also called Fc-pentamer/J-HA; IgM-Fc/J-HA; source: HEK293T transfected with pCAGGS-FLAG-mouse Fc and pCAGGS-mouse J chain-HA, co-cultured with cells expressing AIM-HA; not shown: FLAG, N-terminal, kept; copies: 10 + 1
T1 sequence (looked up) 1: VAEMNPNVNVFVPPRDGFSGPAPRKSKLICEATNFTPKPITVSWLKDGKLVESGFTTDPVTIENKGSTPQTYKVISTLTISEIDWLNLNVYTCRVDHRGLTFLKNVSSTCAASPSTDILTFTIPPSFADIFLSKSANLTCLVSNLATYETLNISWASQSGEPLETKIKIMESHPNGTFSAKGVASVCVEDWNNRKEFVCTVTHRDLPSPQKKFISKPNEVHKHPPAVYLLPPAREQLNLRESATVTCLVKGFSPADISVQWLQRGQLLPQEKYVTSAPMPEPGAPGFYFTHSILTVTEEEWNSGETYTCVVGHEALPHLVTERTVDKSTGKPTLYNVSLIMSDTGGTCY
T1 sequence (looked up) 2: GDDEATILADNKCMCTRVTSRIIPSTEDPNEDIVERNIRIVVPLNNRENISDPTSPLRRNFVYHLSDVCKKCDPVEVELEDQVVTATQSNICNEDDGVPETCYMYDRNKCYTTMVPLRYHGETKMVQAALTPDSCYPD

[5] = molecular target: the molecule itself; assay: negative-stain EM; purified FLAG-tagged mouse IgM-Fc oligomers made in the absence of the J chain; reference-free 2D class averages
[6] = molecular target: the molecule itself; assay: negative-stain EM; purified IgM-Fc or IgM made with the J chain, about 15 μg/ml, 1% uranyl acetate; reference-free 2D class averages (RELION)

stoichiometry N [1]: 5
Molecule: FLAG-tagged recombinant human IgM-Fc (domain or fragment)

stoichiometry N [2]: 4 and 5
stoichiometry N [3]: 4 and 5
Molecule: FLAG-tagged mouse IgM-Fc Cys414Ser variant (domain or fragment)

ratio of HA signal, AIM-HA versus J-HA [4]: 1.3 ± 0.12 J-HA signal per AIM-HA signal
stoichiometry N [4]: 1 AIM per pentamer
B1: HA-tagged mouse AIM (natural protein, UniProt Q9QWK4 22-352, looked up)
chain: ESPTKVQLVGGAHRCEGRVEVEHNGQWGTVCDDGWDRRDVAVVCRELNCGAVIQTPRGASYQPPASEQRVLIQGVDCNGTEDTLAQCELNYDVFDCSHEEDAGAQCENPDSDLLFIPEDVRLVDGPGHCQGRVEVLHQSQWSTVCKAGWNLQVSKVVCRQLGCGRALLTYGSCNKNTQGKGPIWMGKMSCSGQEANLRSCLLSRLENNCTHGEDTWMECEDPFELKLVGGDTPCSGRLEVLHKGSWGSVCDDNWGEKEDQVVCKQLGCGKSLHPSPKTRKIYGPGAGRIWLDDVNCSGKEQSLEFCRHRLWGYHDCTHKEDVEVICTDFDV
notes: Mouse AIM (CD5L), secreted; also called AIM-HA; source: HEK293T, transfected (pCAGGS-AIM-HA), co-cultured with cells expressing FLAG-mouse Fc and J chain-HA; culture supernatant, co-purified with the Fc pentamer

B2: FLAG-tagged recombinant mouse IgM-Fc (Cμ2 to tail) (domain or fragment, UniProt P01872 1-454, looked up)
chain: T1 sequence (looked up) 1
notes: Mouse immunoglobulin M heavy chain, Fc region: Cμ2-Cμ3-Cμ4 and the short tail (19 amino acids); also called mouse Fc; Fc monomer; source: HEK293T, transfected (pCAGGS-FLAG-IgM-Fc, with or without the J chain plasmid), in culture supernatant; not shown: FLAG, N-terminal, kept
stoichiometry N [5]: 6
stoichiometry N [6]: 5
